To fix the notation:
B1: Pistol ribozyme (parent)
chain: GGGUCGUUGUUCCAUAAUCGCGUGGAUAUGGCACGCAAGUUUCUACCGGGCACCGUAAAUGUCCGACUGGAGCCGUUCGGGCGGCUAUAAACAGACCUCAGGCCCGAAGCGUGGCGGCACCUGCCGCCGGUGGUAAAAAAGAUCGGAAGAGCACACGUCU

In the series the parent is B1. The experiment in a line: aptazyme ON/OFF ratio, guanine; higher = stronger switching; co-transcriptional cleavage with and without guanine.
On to U7G G9C U10A U11G C13G, for which the “aptazyme ON/OFF ratio” value worked out at 1.14. Consider U7A U8A G9U U10C U11C C12U, for which the “aptazyme ON/OFF ratio” value came to 1.02. Next, U7A U8C G9U U10A U11G C13G: 1.1; U7A U8A U10G U11A C13A: 1.19. U7A U8A G9A U10G C12A C13A: the “aptazyme ON/OFF ratio” value was found to be 1.21. Consider U7C U8A G9C U11C C12U C13G, for which the “aptazyme ON/OFF ratio” value was found to be 1.06. Next, U7A U8C G9A U10G U11G C12U: 1.39; U7G U8G U10G U11G C13U: 1.37; U7A U8C G9C U10G U11C C12A C13U: 1.09. Next, U8A G9U U10G U11G C12G C13U: 1.34; U7C G9A U11A C12U C13U: 1.3; U7A G9C U10A U11A C12A C13G: 1.07. Next, U7C G9C C12A: 1.03. With G9C U10G C13A, the “aptazyme ON/OFF ratio” value amounted to 1.28.

As to U7G U8G U10A U11C C12U, the “aptazyme ON/OFF ratio” value came out at 1.42. For U7A U8A G9C U10G C12A C13A, the “aptazyme ON/OFF ratio” value stood at 1.18. The value for U7C G9C U10C U11C C12G was 1.03; that for U7C U8C G9C U10G U11G C12A C13U was 1.09.

As for U7C G9U U10A U11C C12A, the “aptazyme ON/OFF ratio” value turned out to be 1.29.

Take U8A G9C U10A U11A C12U C13G: the “aptazyme ON/OFF ratio” value stood at 1.19. Next, U7C U8G G9U U10A U11G C12U C13G: 1.14; G9U C12A: 1.08.

As for U7C U8G G9C U10A C12U C13G, the “aptazyme ON/OFF ratio” value worked out at 1.13.

Turning to U7C G9A U10G U11A C12A C13A, the “aptazyme ON/OFF ratio” value amounted to 1.17. Next, U8C G9C U11C C12U: 1.08. The value for U7C U8C G9C U10C U11G C12U was 1.15; that for U7G U8A G9A C13U was 1.23. The value for U7G U8A G9C U10C C12A C13A was 1.07. Regarding U7G U10G U11C C12A C13A, the “aptazyme ON/OFF ratio” value is 1.11. Next, U8C G9C U10C U11A C13G: 1.08. Next, U7C U8C G9A C13G: 1.11; U7C U8C G9A U10G U11G C12G: 1.16; U7C U8G G9A U10G C12G C13A: 1.25. In the case of U7A U8G G9C U10G U11A C12U C13A, the “aptazyme ON/OFF ratio” value is 1.33.

Consider U7C U8A G9C U10G U11C C12A C13U, for which the “aptazyme ON/OFF ratio” value was determined as 1.43. Next, U7A U10C C13U: 1.13; U7C U8A G9U U10G U11G C12A C13U: 1.26. Next, U7G U8A G9U U10G U11A C12U C13G: 1.03; U7C U8A G9C U10G U11G C13A: 1.13; U7G U8A G9U U10A U11A C13G: 1.02. In the case of U7G U8C U10C U11A C12A, the “aptazyme ON/OFF ratio” value came to 1.44. Next, U7C U8C G9A U10C C13A: 1.47; U7G U8C G9U U11G C12G C13G: 1.12. For the variant U7A U8G U11C C13G, the “aptazyme ON/OFF ratio” value is 1.35.

For U8C G9U U10A U11A C12U C13G, the “aptazyme ON/OFF ratio” value amounted to 1.2.

For the variant U7C U8A U10C U11C C13G, the “aptazyme ON/OFF ratio” value worked out at 1.09. The value for U7G U8A G9C U10G U11A C12U C13U was 1.03; that for U7G U8C G9C U10A U11A C12A C13U was 1.11.

For the variant U7G G9A U10A U11C C12A C13G, the “aptazyme ON/OFF ratio” value is 1.1. Consider U7G U8C G9U U10A U11C C12U C13A, for which the “aptazyme ON/OFF ratio” value turned out to be 1.48. Consider U7G U8G U10C U11C C12U, for which the “aptazyme ON/OFF ratio” value came out at 1.35. U8A U11C C12U C13A: the “aptazyme ON/OFF ratio” value stood at 1.38. Regarding U7G U8G G9C U10G U11A C12A, the “aptazyme ON/OFF ratio” value came out at 1.17. As for U7C U8C G9A U10A U11C C12U C13G, the “aptazyme ON/OFF ratio” value worked out at 1.2.

As for U7A U8G U10G U11G C12A, the “aptazyme ON/OFF ratio” value worked out at 1.24. On to U7G U8G G9C U11G C13A, for which the “aptazyme ON/OFF ratio” value is 1.3.

On to U7C U8A G9C U10G U11G C12A C13G, for which the “aptazyme ON/OFF ratio” value was determined as 1.12.

As for U7G U8C G9C C12G, the “aptazyme ON/OFF ratio” value was found to be 1.22. In the case of U8A U10C U11C C12U C13G, the “aptazyme ON/OFF ratio” value stood at 1.06. Next, U7G U8G U10G U11A C12U C13G: 1.17.

Regarding U8G U10C U11G C12U, the “aptazyme ON/OFF ratio” value worked out at 1.33. Take U7C U8C G9A U10A C12A: the “aptazyme ON/OFF ratio” value worked out at 1.44. U7A U8C U11A C12U: the “aptazyme ON/OFF ratio” value is 1.23. Turning to U7C U8A G9C U11C C12G C13U, the “aptazyme ON/OFF ratio” value was found to be 1.1. Next, U8C G9A U11G C12G C13A: 1.19.

On to U7C U8C G9A U10G U11C C12U, for which the “aptazyme ON/OFF ratio” value is 1.43. As for U7C U8C U11A C12G C13U, the “aptazyme ON/OFF ratio” value is 1.12.

In the case of U7G U8A G9C U10G U11A C12A C13U, the “aptazyme ON/OFF ratio” value amounted to 1.03.

Take U8C G9C U10G U11G C12G C13G: the “aptazyme ON/OFF ratio” value came to 1.1. Next, U8G G9A U10G U11G C12A: 1.32. Next, U7C U8C G9U U10G U11C C12G: 1.24; U8A G9U U10C U11A C12U C13A: 1.26; U7C G9C U10C U11C C12A C13U: 1.04. For the variant U7G U8C U10A U11A C12U C13U, the “aptazyme ON/OFF ratio” value came to 1.24. The value for U7A U8A C13A was 1.38. Next, U8G G9U C12U: 1.77; U8A U10A U11A C12U C13G: 1.09.

As for U10C U11A C13G, the “aptazyme ON/OFF ratio” value stood at 1.08. For U7G U8A G9A U10C C12U C13U, the “aptazyme ON/OFF ratio” value turned out to be 1.12. Next, U7G U8G G9U U10G U11C: 1.1; U7C U10C U11A C13U: 1.38. As for U7G U8A G9U U10G U11G C12A C13G, the “aptazyme ON/OFF ratio” value is 1.09. U8G G9A C12G: the “aptazyme ON/OFF ratio” value was found to be 1.16. The value for U7G U8A G9A C12A C13U was 1.1.

The record behind these values is the RNAGym collection of RNA variant scans (doi:10.1021/acssynbio.7b00057).
